Measurements published in article PMC7515725.

Key:
LexA = assay: FRET LexA titration; details: 75 mM NaCl, absolute S1/2 only in figure, LexA FRET: 10 nM nucleosome, 0-100 uM LexA, 0.5x TE, 10 min, nucleosomes reconstituted by KCl step dialysis (2 M to 10 mM), 10 mM Tris-HCl pH 7.8 …, scale: % decrease of S1/2 vs unmodified nucleosome
[1] = test system: Histone octamer with H4K77succ (Xenopus laevis); assay: FRET salt titration; details: LexA FRET: 10 nM nucleosome, 0-100 uM LexA, 0.5x TE, 75 mM NaCl, 10 min, nucleosomes reconstituted by KCl step dialysis (2 M to 10 mM), 10 mM Tris-HCl pH 7.8 …
[2] = test system: Histone octamer, H2B T112C or end-label DNA FRET, unmodified H4 (Xenopus laevis); assay: FRET salt titration; details: C1/2 is the NaCl concentration for 50% FRET loss, LexA FRET: 10 nM nucleosome, 0-100 uM LexA, 0.5x TE, 75 mM NaCl, 10 min, nucleosomes reconstituted by KCl step dialysis (2 M to 10 mM), 10 mM Tris-HCl pH 7.8 …

Substance “601 DNA with LexA site, in H4K77succ nucleosome” has a binding signal (LexA) of 45.5.

With Widom 601, end-labelled the K half ([1]; C1/2 is the NaCl concentration for 50% FRET loss, 14.8% lower than unmodified) was 0.529 M NaCl and the K half ([2]; not a protein Kd) was 0.621 M NaCl.

MMTV-B showed a binding signal (% decrease of C1/2 vs unmodified) ([1]; NaCl titration) of 9 and a K half [2] of 0.475 M NaCl.
